Test results as given in US20200016237A1.

What was measured:
[1] = target: Neogenin on murine brain-derived endothelial cells (b.end3) (mouse) (UniProt P97798); assay: cell-based or functional assay
[2] = target: Alkaline Phosphatase-tagged extracellular domains of Neogenin (Ec-Neogenin-AP); assay: plate competition binding assay, His-tagged protein coated, AP-tagged protein detected with pNPP at 405 nm; sRGMa pre-incubated with Ec-Neogenin-AP

Neogenin on murine brain-derived endothelial cells (b.end3) (mouse), sequence (P97798 37-1492): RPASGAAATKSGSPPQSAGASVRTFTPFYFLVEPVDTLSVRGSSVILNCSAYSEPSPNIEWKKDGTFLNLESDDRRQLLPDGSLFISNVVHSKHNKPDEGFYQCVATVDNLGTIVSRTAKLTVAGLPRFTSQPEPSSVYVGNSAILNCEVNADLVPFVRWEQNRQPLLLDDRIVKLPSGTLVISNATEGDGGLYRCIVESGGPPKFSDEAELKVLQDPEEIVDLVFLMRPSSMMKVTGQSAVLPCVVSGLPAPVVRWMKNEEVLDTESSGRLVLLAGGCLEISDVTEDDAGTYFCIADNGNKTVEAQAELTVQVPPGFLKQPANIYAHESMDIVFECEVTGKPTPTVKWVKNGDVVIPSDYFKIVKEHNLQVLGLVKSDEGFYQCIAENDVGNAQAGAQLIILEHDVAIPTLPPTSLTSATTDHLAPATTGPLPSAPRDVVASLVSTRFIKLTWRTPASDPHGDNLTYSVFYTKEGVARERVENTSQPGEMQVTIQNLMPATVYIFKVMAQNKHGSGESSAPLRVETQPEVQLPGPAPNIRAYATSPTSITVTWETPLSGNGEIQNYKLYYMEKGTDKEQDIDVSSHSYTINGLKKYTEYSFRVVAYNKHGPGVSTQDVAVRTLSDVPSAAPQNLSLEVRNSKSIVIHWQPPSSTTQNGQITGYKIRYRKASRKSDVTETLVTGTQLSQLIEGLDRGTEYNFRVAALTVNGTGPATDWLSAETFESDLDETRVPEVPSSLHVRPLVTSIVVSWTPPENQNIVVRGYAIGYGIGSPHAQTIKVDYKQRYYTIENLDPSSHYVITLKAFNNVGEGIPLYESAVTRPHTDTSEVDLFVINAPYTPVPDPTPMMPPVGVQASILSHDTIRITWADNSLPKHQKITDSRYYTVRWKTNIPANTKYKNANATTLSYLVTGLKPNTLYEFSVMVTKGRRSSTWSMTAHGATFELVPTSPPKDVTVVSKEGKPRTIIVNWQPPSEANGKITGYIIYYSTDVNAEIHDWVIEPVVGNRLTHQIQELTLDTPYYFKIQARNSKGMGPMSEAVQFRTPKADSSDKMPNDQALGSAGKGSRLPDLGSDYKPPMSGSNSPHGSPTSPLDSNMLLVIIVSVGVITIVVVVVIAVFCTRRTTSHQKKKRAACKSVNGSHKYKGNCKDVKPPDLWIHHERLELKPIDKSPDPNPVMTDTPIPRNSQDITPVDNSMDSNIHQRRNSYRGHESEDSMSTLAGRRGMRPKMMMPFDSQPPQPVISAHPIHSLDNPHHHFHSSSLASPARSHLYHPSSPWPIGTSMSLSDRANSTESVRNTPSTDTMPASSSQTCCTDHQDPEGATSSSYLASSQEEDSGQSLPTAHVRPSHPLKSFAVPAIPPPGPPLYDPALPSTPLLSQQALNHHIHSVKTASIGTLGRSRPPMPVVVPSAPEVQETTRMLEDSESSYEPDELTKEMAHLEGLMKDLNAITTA

## soluble RGMa (sRGMa), mouse, His tag replacing the GPI anchor (from UniProt Q6PCX7 170-427) (ligand)
[1]
  fold decrease in Claudin 5 levels in b.End3 cells (Western blot): 2 fold
[2]
  fold reduction of binding intensity of RGMc to Neogenin against BSA control: 3 fold
